Data published in paper PMC9930725 (Nature, 2022).

B1: PhyB N908 fragment (domain or fragment, Arabidopsis thaliana, UniProt P14713 1-908, looked up)
chain: MVSGVGGSGGGRGGGRGGEEEPSSSHTPNNRRGGEQAQSSGTKSLRPRSNTESMSKAIQQYTVDARLHAVFEQSGESGKSFDYSQSLKTTTYGSSVPEQQITAYLSRIQRGGYIQPFGCMIAVDESSFRIIGYSENAREMLGIMPQSVPTLEKPEILAMGTDVRSLFTSSSSILLERAFVAREITLLNPVWIHSKNTGKPFYAILHRIDVGVVIDLEPARTEDPALSIAGAVQSQKLAVRAISQLQALPGGDIKLLCDTVVESVRDLTGYDRVMVYKFHEDEHGEVVAESKRDDLEPYIGLHYPATDIPQASRFLFKQNRVRMIVDCNATPVLVVQDDRLTQSMCLVGSTLRAPHGCHSQYMANMGSIASLAMAVIINGNEDDGSNVASGRSSMRLWGLVVCHHTSSRCIPFPLRYACEFLMQAFGLQLNMELQLALQMSEKRVLRTQTLLCDMLLRDSPAGIVTQSPSIMDLVKCDGAAFLYHGKYYPLGVAPSEVQIKDVVEWLLANHADSTGLSTDSLGDAGYPGAAALGDAVCGMAVAYITKRDFLFWFRSHTAKEIKWGGAKHHPEDKDDGQRMHPRSSFQAFLEVVKSRSQPWETAEMDAIHSLQLILRDSFKESEAAMNSKVVDGVVQPCRDMAGEQGIDELGAVAREMVRLIETATVPIFAVDAGGCINGWNAKIAELTGLSVEEAMGKSLVSDLIYKENEATVNKLLSRALRGDEEKNVEVKLKTFSPELQGKAVFVVVNACSSKDYLNNIVGVCFVGQDVTSQKIVMDKFINIQGDYKAIVHSPNPLIPPIFAADENTCCLEWNMAMEKLTGWSRSEVIGKMIVGEVFGSCCMLKGPDALTKFMIVLHNAIGGQDTDKFPFPFFDRNGKFVQALLTANKRVSLEGKVIGAFCFLQIPS
modifications: phytochromobilin (PΦB) bound
B2: PhyB N908(L427A) (domain or fragment, Arabidopsis thaliana, UniProt P14713 1-908, looked up)
chain: MVSGVGGSGGGRGGGRGGEEEPSSSHTPNNRRGGEQAQSSGTKSLRPRSNTESMSKAIQQYTVDARLHAVFEQSGESGKSFDYSQSLKTTTYGSSVPEQQITAYLSRIQRGGYIQPFGCMIAVDESSFRIIGYSENAREMLGIMPQSVPTLEKPEILAMGTDVRSLFTSSSSILLERAFVAREITLLNPVWIHSKNTGKPFYAILHRIDVGVVIDLEPARTEDPALSIAGAVQSQKLAVRAISQLQALPGGDIKLLCDTVVESVRDLTGYDRVMVYKFHEDEHGEVVAESKRDDLEPYIGLHYPATDIPQASRFLFKQNRVRMIVDCNATPVLVVQDDRLTQSMCLVGSTLRAPHGCHSQYMANMGSIASLAMAVIINGNEDDGSNVASGRSSMRLWGLVVCHHTSSRCIPFPLRYACEFLMQAFGAQLNMELQLALQMSEKRVLRTQTLLCDMLLRDSPAGIVTQSPSIMDLVKCDGAAFLYHGKYYPLGVAPSEVQIKDVVEWLLANHADSTGLSTDSLGDAGYPGAAALGDAVCGMAVAYITKRDFLFWFRSHTAKEIKWGGAKHHPEDKDDGQRMHPRSSFQAFLEVVKSRSQPWETAEMDAIHSLQLILRDSFKESEAAMNSKVVDGVVQPCRDMAGEQGIDELGAVAREMVRLIETATVPIFAVDAGGCINGWNAKIAELTGLSVEEAMGKSLVSDLIYKENEATVNKLLSRALRGDEEKNVEVKLKTFSPELQGKAVFVVVNACSSKDYLNNIVGVCFVGQDVTSQKIVMDKFINIQGDYKAIVHSPNPLIPPIFAADENTCCLEWNMAMEKLTGWSRSEVIGKMIVGEVFGSCCMLKGPDALTKFMIVLHNAIGGQDTDKFPFPFFDRNGKFVQALLTANKRVSLEGKVIGAFCFLQIPS
modifications: phytochromobilin (PΦB) bound
B3: PhyB N982 fragment (domain or fragment, Arabidopsis thaliana, UniProt P14713 1-982, looked up)
chain: MVSGVGGSGGGRGGGRGGEEEPSSSHTPNNRRGGEQAQSSGTKSLRPRSNTESMSKAIQQYTVDARLHAVFEQSGESGKSFDYSQSLKTTTYGSSVPEQQITAYLSRIQRGGYIQPFGCMIAVDESSFRIIGYSENAREMLGIMPQSVPTLEKPEILAMGTDVRSLFTSSSSILLERAFVAREITLLNPVWIHSKNTGKPFYAILHRIDVGVVIDLEPARTEDPALSIAGAVQSQKLAVRAISQLQALPGGDIKLLCDTVVESVRDLTGYDRVMVYKFHEDEHGEVVAESKRDDLEPYIGLHYPATDIPQASRFLFKQNRVRMIVDCNATPVLVVQDDRLTQSMCLVGSTLRAPHGCHSQYMANMGSIASLAMAVIINGNEDDGSNVASGRSSMRLWGLVVCHHTSSRCIPFPLRYACEFLMQAFGLQLNMELQLALQMSEKRVLRTQTLLCDMLLRDSPAGIVTQSPSIMDLVKCDGAAFLYHGKYYPLGVAPSEVQIKDVVEWLLANHADSTGLSTDSLGDAGYPGAAALGDAVCGMAVAYITKRDFLFWFRSHTAKEIKWGGAKHHPEDKDDGQRMHPRSSFQAFLEVVKSRSQPWETAEMDAIHSLQLILRDSFKESEAAMNSKVVDGVVQPCRDMAGEQGIDELGAVAREMVRLIETATVPIFAVDAGGCINGWNAKIAELTGLSVEEAMGKSLVSDLIYKENEATVNKLLSRALRGDEEKNVEVKLKTFSPELQGKAVFVVVNACSSKDYLNNIVGVCFVGQDVTSQKIVMDKFINIQGDYKAIVHSPNPLIPPIFAADENTCCLEWNMAMEKLTGWSRSEVIGKMIVGEVFGSCCMLKGPDALTKFMIVLHNAIGGQDTDKFPFPFFDRNGKFVQALLTANKRVSLEGKVIGAFCFLQIPSPELQQALAVQRRQDTECFTKAKELAYICQVIKNPLSGMRFANSLLEATDLNEDQKQLLETSVSCEKQISRIVGD
modifications: phytochromobilin (PΦB) bound
B4: Arabidopsis thaliana phytochrome B, full length (natural protein, UniProt P14713 1-1172, looked up)
chain: MVSGVGGSGGGRGGGRGGEEEPSSSHTPNNRRGGEQAQSSGTKSLRPRSNTESMSKAIQQYTVDARLHAVFEQSGESGKSFDYSQSLKTTTYGSSVPEQQITAYLSRIQRGGYIQPFGCMIAVDESSFRIIGYSENAREMLGIMPQSVPTLEKPEILAMGTDVRSLFTSSSSILLERAFVAREITLLNPVWIHSKNTGKPFYAILHRIDVGVVIDLEPARTEDPALSIAGAVQSQKLAVRAISQLQALPGGDIKLLCDTVVESVRDLTGYDRVMVYKFHEDEHGEVVAESKRDDLEPYIGLHYPATDIPQASRFLFKQNRVRMIVDCNATPVLVVQDDRLTQSMCLVGSTLRAPHGCHSQYMANMGSIASLAMAVIINGNEDDGSNVASGRSSMRLWGLVVCHHTSSRCIPFPLRYACEFLMQAFGLQLNMELQLALQMSEKRVLRTQTLLCDMLLRDSPAGIVTQSPSIMDLVKCDGAAFLYHGKYYPLGVAPSEVQIKDVVEWLLANHADSTGLSTDSLGDAGYPGAAALGDAVCGMAVAYITKRDFLFWFRSHTAKEIKWGGAKHHPEDKDDGQRMHPRSSFQAFLEVVKSRSQPWETAEMDAIHSLQLILRDSFKESEAAMNSKVVDGVVQPCRDMAGEQGIDELGAVAREMVRLIETATVPIFAVDAGGCINGWNAKIAELTGLSVEEAMGKSLVSDLIYKENEATVNKLLSRALRGDEEKNVEVKLKTFSPELQGKAVFVVVNACSSKDYLNNIVGVCFVGQDVTSQKIVMDKFINIQGDYKAIVHSPNPLIPPIFAADENTCCLEWNMAMEKLTGWSRSEVIGKMIVGEVFGSCCMLKGPDALTKFMIVLHNAIGGQDTDKFPFPFFDRNGKFVQALLTANKRVSLEGKVIGAFCFLQIPSPELQQALAVQRRQDTECFTKAKELAYICQVIKNPLSGMRFANSLLEATDLNEDQKQLLETSVSCEKQISRIVGDMDLESIEDGSFVLKREEFFLGSVINAIVSQAMFLLRDRGLQLIRDIPEEIKSIEVFGDQIRIQQLLAEFLLSIIRYAPSQEWVEIHLSQLSKQMADGFAAIRTEFRMACPGEGLPPELVRDMFHSSRWTSPEGLGLSVCRKILKLMNGEVQYIRESERSYFLIILELPVPRKRPLSTASGSGDMMLMMPY
modifications: phytochromobilin (PΦB) covalently linked to Cys357

Experiments:
thermal reversion rate = molecular target: the molecule itself; assay: thermal reversion rate
SEC = molecular target: the molecule itself; assay: SEC

Protein | binding result (SEC) | further results
B1 |  | Kd (thermal reversion rate): ~26 nM
B2 | binds | 
B3 | binds | 
B4 |  | stoichiometry N (SEC): 2
